Results from article PMC12216052 (2025).

Tests used:
[1] = target: ACVR2A (Homo sapiens (Human), UniProt P27037); test: SPR steady state, receptor-Fc on chip, monomer analyte
[2] = target: T1, ACVR1B (Homo sapiens (Human), UniProt P36896); test: as above
T1 chain: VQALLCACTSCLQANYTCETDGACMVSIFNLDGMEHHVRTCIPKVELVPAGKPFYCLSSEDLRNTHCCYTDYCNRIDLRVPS

Sequence of ACVR2A (P27037 25-118): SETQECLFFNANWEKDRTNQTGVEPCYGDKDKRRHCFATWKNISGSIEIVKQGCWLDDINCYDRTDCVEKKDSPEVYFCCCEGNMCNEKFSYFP

Kd [1]: > 10 µM
Kd [2]: > 10 µM
B1: DLK1 (protein)
chain: VANSCTPNPCENDGVCTDIGGDFRCRCPAGFIDKTCSRPVTNCASSPCQNGGTCLQHTQVSYECLCKPEFTGLTCVKK
